Earlier results on 11 molecules are cited in patent US20130145495A1, “ENHANCED CARBON FIXATION IN PHOTOSYNTHETIC HOSTS” (DONALD DANFORTH PLANT SCIENCE CENTER, priority 2010, published 2013).

B1: hCAIV: human α-carbonic anhydrase isoenzyme IV, membrane (protein, UniProt P22748 19-284, looked up)
Carbonic anhydrase 4: AESHWCYEVQAESSNYPCLVPVKWGGNCQKDRQSPINIVTTKAKVDKKLGRFFFSGYDKKQTWTVQNNGHSVMMLLENKASISGGGLPAPYQAKQLHLHWSDLPYKGSEHSLDGEHFAMEMHIVHEKEKGTSRNVKEAQDPEDEIAVLAFLVEAGTQVNEGFQPLVEALSNIPKPEMSTTMAESSLLDLLPKEEKLRHYFRYLGSLTTPTCDEKVVWTVFREPIQLHREQILAFSQKLYYDKEQTVSMKDNVRPLQQLGQRTVIKS
B2: hCAXII: human α-carbonic anhydrase isoenzyme XII, transmembrane (protein, UniProt O43570 25-354, looked up)
Carbonic anhydrase 12: APVNGSKWTYFGPDGENSWSKKYPSCGGLLQSPIDLHSDILQYDASLTPLEFQGYNLSANKQFLLTNNGHSVKLNLPSDMHIQGLQSRYSATQLHLHWGNPNDPHGSEHTVSGQHFAAELHIVHYNSDLYPDASTASNKSEGLAVLAVLIEMGSFNPSYDKIFSHLQHVKYKGQEAFVPGFNIEELLPERTAEYYRYRGSLTTPPCNPTVLWTVFRNPVQISQEQLLALETALYCTHMDDPSPREMINNFRQVQKFDERLVYTSFSQVQVCTAAGLSLGIILSLALAGILGICIVVVVSIWLFRRKSIKKGDNKGVIYKPATKMETEAHA
B3: hCAXIV: human α-carbonic anhydrase isoenzyme XIV, transmembrane (protein, UniProt Q9ULX7 16-337, looked up)
Carbonic anhydrase 14: ADGGQHWTYEGPHGQDHWPASYPECGNNAQSPIDIQTDSVTFDPDLPALQPHGYDQPGTEPLDLHNNGHTVQLSLPSTLYLGGLPRKYVAAQLHLHWGQKGSPGGSEHQINSEATFAELHIVHYDSDSYDSLSEAAERPQGLAVLGILIEVGETKNIAYEHILSHLHEVRHKDQKTSVPPFNLRELLPKQLGQYFRYNGSLTTPPCYQSVLWTVFYRRSQISMEQLEKLQGTLFSTEEEPSKLLVQNYRALQPLNQRMVFASFIQAGSSYTTGEMLSLGVGILVGCLCLLLAVYFIARKIRKKRLENRKSVVFTSAQATTEA
B4: hCAVI: human α-carbonic anhydrase isoenzyme VI, secreted (protein, UniProt P23280 18-308, looked up)
Carbonic anhydrase 6: QHVSDWTYSEGALDEAHWPQHYPACGGQRQSPINLQRTKVRYNPSLKGLNMTGYETQAGEFPMVNNGHTVQISLPSTMRMTVADGTVYIAQQMHFHWGGASSEISGSEHTVDGIRHVIEIHIVHYNSKYKSYDIAQDAPDGLAVLAAFVEVKNYPENTYYSNFISHLANIKYPGQRTTLTGLDVQDMLPRNLQHYYTYHGSLTTPPCTENVHWFVLADFVKLSRTQVWKLENSLLDHRNKTIHNDYRRTQPLNHRVVESNFPNQEYTLGSEFQFYLHKIEEILDYLRRALN
B5: hCAXV: α-carbonic anhydrase isoenzyme XV, membrane (protein, UniProt Q99N23 19-324, looked up)
Carbonic anhydrase 15: VDSSGTWCYDSQDPKCGPAHWKELAPACGGPTQSPINIDLRLVQRDYTLKPFIFQGYDSAPQDPWVLENDGHTVLLRVNSCQQNCPAIRGAGLPSPEYRLLQLHFHWGSPGHQGSEHSLDEKHGSMEMHMVHMNTKYQSMEDARSQPDGFAILAVLLVEEDRDNTNFSAIVSGLKNLSSPGVAVNLTSTFALASLLPSALRLLRYYRYSGSLTTPGCEPAVLWTVFENTVPIGHAQVVQFQAVLQTGPPGLHPRPLTSNFRPQQPLGGRRISASPEASVRSSVSTLPCLHLALVGLGVGLRLWQGP
B6: hCAVII: human α-carbonic anhydrase isoenzyme VII, cytosol (protein, UniProt P43166 1-264, looked up)
Carbonic anhydrase 7: MTGHHGWGYGQDDGPSHWHKLYPIAQGDRQSPINIISSQAVYSPSLQPLELSYEACMSLSITNNGHSVQVDFNDSDDRTVVTGGPLEGPYRLKQFHFHWGKKHDVGSEHTVDGKSFPSELHLVHWNAKKYSTFGEAASAPDGLAVVGVFLETGDEHPSMNRLTDALYMVRFKGTKAQFSCFNPKCLLPASRHYWTYPGSLTTPPLSESVTWIVLREPICISERQMGKFRSLLFTSEDDERIHMVNNFRPPQPLKGRVVKASFRA
B7: hCAIII: human α-carbonic anhydrase isoenzyme III, cytosol (protein, UniProt P07451 2-260, looked up)
Carbonic anhydrase 3: AKEWGYASHNGPDHWHELFPNAKGENQSPVELHTKDIRHDPSLQPWSVSYDGGSAKTILNNGKTCRVVFDDTYDRSMLRGGPLPGPYRLRQFHLHWGSSDDHGSEHTVDGVKYAAELHLVHWNPKYNTFKEALKQRDGIAVIGIFLKIGHENGEFQIFLDALDKIKTKGKEAPFTKFDPSCLFPACRDYWTYQGSFTTPPCEECIVWLLLKEPMTVSSDQMAKLRSLLSSAENEPPVPLVSNWRPPQPINNRVVRASFK
B8: hCAVA: human α-carbonic anhydrase isoenzyme VA, mitochondria (protein, UniProt P35218 39-305, looked up)
Carbonic anhydrase 5A, …: CAWQTSNNTLHPLWTVPVSVPGGTRQSPINIQWRDSVYDPQLKPLRVSYEAASCLYIWNTGYLFQVEFDDATEASGISGGPLENHYRLKQFHFHWGAVNEGGSEHTVDGHAYPAELHLVHWNSVKYQNYKEAVVGENGLAVIGVFLKLGAHHQTLQRLVDILPEIKHKDARAAMRPFDPSTLLPTCWDYWTYAGSLTTPPLTESVTWIIQKEPVEVAPSQLSAFRTLLFSALGEEEKMMVNNYRPLQPLMNRKVWASFQATNEGTRS
B9: hCAVB: human α-carbonic anhydrase isoenzyme VB, mitochondria (protein, UniProt Q9Y2D0 34-317, looked up)
Carbonic anhydrase 5B, …: CSLYTCTYKTRNRALHPLWESVDLVPGGDRQSPINIRWRDSVYDPGLKPLTISYDPATCLHVWNNGYSFLVEFEDSTDKSVIKGGPLEHNYRLKQFHFHWGAIDAWGSEHTVDSKCFPAELHLVHWNAVRFENFEDAALEENGLAVIGVFLKLGKHHKELQKLVDTLPSIKHKDALVEFGSFDPSCLMPTCPDYWTYSGSLTTPPLSESVTWIIKKQPVEVDHDQLEQFRTLLFTSEGEKEKRMVDNFRPLQPLMNRTVRSSFRHDYVLNVQAKPKPATSQATP

In this data set the test system is carbonic anhydrase.
Turning to “hCAI: human α-carbonic anhydrase isoenzyme I, cytosol”, the Kcat is 200000 s⁻¹.

As for “hCAXIII: human α-carbonic anhydrase isoenzyme XIII, cytosol”, the Kcat was 150000 s⁻¹. For B1, the Kcat is 1e+06 s⁻¹. Regarding B2, the Kcat is 420000 s⁻¹.

With B3, the Kcat is 310000 s⁻¹.

With B4, the Kcat is 340000 s⁻¹.

As for B5, the Kcat was 470000 s⁻¹.

Turning to B6, the Kcat was 950000 s⁻¹. On to B7, for which the Kcat is 10000 s⁻¹. B8: the Kcat was 290000 s⁻¹.

B9: the Kcat was 950000 s⁻¹.
